Reference: PMC5339802 (2017)

B1: RPGRIP1L-C2_(NTERM) domain, purified, GST removed (domain or fragment)
chain: RIHKLEAQLKDIAYGTKQYKFKPEIMPDDSVDEFDETIHLERGENLFEIHINKVTFSSEVLQASGDKEPVTFCTYAFYDFELQTTPVVRGLHPEYNFTSQYLVHVNDLFLQYIQKNTITLEVHQAYSTEYETIAACQLKFHEILEKSGRIFCTASLIGTKGDIPNFGTVEYWFRLRV
B2: RPGRIP1L-C2MED domain, purified, GST removed (domain or fragment)
chain: STDSTDGNLNELHITIRCCNHLQSRASHLQPHPYVVYKFFDFADHDTAIIPSSNDPQFDDHMYFPVPMNMDLDRYLKSESLSFYVFDDSDTQENIYIGKVNVPLISLAHDRCISGIFELTDHQKHPAGTIHVILKWKFAYLPPSGSITTE
B3: RPGRIP1L-C2_(CTERM) domain, purified, GST removed (domain or fragment)
chain: MQQGKDDVSLLSEGQLAEQSLASSEDETEITEDLEPEVEEDMSASDSDDCIIPGPISKNIKQPSEKIRIEIIALSLNDSQVTMDDTIQRLFVECRFYSLPAEETPVSLPKPKSGQWVYYNYSNVIYVDKENNKAKRDILKAILQKQEMPNRSLRFTVVSDPPEDEQDLECEDIGVAHVDLADMFQEGRDLIEQNIDVFDARADGEGIGKLRVTVEALHALQSVYKQYRDDLEA

Experiments:
FITC-labeled MyoVa-GTD [1] = target: T1, FITC-labeled MyoVa-GTD (human, UniProt Q9Y4I1 1448-1855, fluorescein isothiocyanate (FITC) label, site not stated); assay: MST; 300 nM FITC-labeled MyoVa-GTD, serial dilution of RPGRIP1L-C2 domains; 50 mM HEPES, 150 mM NaCl, 5% glycerol, 0.05% tween-20, pH 7.2; Monolith NT.115, LED power 20%, MST power 60%; triplicate
T1 chain: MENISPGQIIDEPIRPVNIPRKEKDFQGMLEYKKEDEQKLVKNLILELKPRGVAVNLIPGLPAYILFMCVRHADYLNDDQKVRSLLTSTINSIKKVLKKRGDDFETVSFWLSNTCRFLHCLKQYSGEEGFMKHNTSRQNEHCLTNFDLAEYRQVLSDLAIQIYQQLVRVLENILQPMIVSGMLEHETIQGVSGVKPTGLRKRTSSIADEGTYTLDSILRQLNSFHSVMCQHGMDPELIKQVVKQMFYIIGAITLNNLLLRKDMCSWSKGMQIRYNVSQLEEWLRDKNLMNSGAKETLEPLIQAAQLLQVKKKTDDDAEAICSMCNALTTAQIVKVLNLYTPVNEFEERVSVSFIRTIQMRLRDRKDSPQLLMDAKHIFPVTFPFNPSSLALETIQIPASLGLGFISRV

FITC-labeled MyoVa-GTD [2] = target: T1, FITC-labeled MyoVa-GTD; assay: MST

Molecule	Kd (FITC-labeled MyoVa-GTD [1]) [µM]	Kd (FITC-labeled MyoVa-GTD [2]) [µM]
RPGRIP1L-C2 domains	3 to 9	
B1		2.8
B2		8.9
B3		3.8
